Sequences and labels used below:
B1: biotin-Tat-3.2 III-IV 1569-1589 linker peptide (peptide)
peptide: YGRKKRRQRRREARRREEKRLRRLERRRRKAQ
modifications: not fully specified (N-terminus); also: biotin, position not given here
notes: also called biotinylated Cav3.21569-1589 III-IV linker peptide; Tat-Cav3.21569-1589 III-IV linker peptide
B2: Tat-Cav3.2 1569-1589 III-IV linker peptide (non-biotinylated) (peptide)
peptide: B1 peptide
notes: also called Tat-3.2-III-IV1569-1589 linker; Tat-3.2-III-IV
B3: USP5 (mouse, endogenous, from brain, DRG or dorsal horn lysate) (enzyme, UniProt P56399 2-858, looked up)
chain: AELSEEALLSVLPTIRVPKAGDRVHKDECAFSFDTPESEGGLYICMNTFLGFGKQYVERHFNKTGQRVYLHLRRTRRPKEEDTSAGTGDPPRKKPTRLAIGVEGGFDLTEDKFEFDEDVKIVILPDYLEIARDGLGGLPDIVRDRVTSAVEALLSADSASRKQEVQAWDGEVRQVSKHAFNLKQLDNPARIPPCGWKCSKCDMRENLWLNLTDGSILCGRRYFDGSGGNNHAVEHYRETGYPLAVKLGTITPDGADVYSYDEDDMVLDPSLAEHLSHFGIDMLKMQKTDKTMTELEIDMNQRIGEWELIQESGVPLKPLFGPGYTGIRNLGNSCYLNSVVQVLFSIPDFQRKYVDKLEKIFQNAPTDPTQDFSTQVAKLGHGLLSGEYSKPALESGDGEQVPEQKEVQDGIAPRMFKALIGKGHPEFSTNRQQDAQEFFLHLINMVERNCRSSENPNEVFRFLVEEKIKCLATEKVKYTQRVDYIMQLPVPMDAALNKEELLEYEEKKRQAEEEKVPLPELVRAQVPFSSCLEAYGAPEQVDDFWSTALQAKSVAVKTTRFASFPDYLVIQIKKFTFGLDWVPKKLDVSIEMPEELDISQLRGTGLQPGEEELPDIAPPLVTPDEPKGSLGFYGNEDEDSFCSPHFSSPTSPMLDESVIIQLVEMGFPMDACRKAVYYTGNSGAEAAMNWVMSHMDDPDFANPLILPGSSGPGSTSAAADPPPEDCVTTIVSMGFSRDQALKALRATNNSLERAVDWIFSHIDDLDAEAAMDISEGRSAAESISESVPVGPKVRDGPGKYQLFAFISHMGTSTMCGHYVCHIKKEGRWVIYNDQKVCASEKPPKDLGYIYFYQRVVS
B4: human biotin-Cav3.2 1569-1586 short III-IV linker peptide (peptide, UniProt O95180-2 1569-1586, looked up)
peptide: EARRREEKRLRRLERRRR
modifications: also: biotin, position not given here
notes: range 1569-1586; Synthetic peptide lacking the PY motif; also called hCav3.21569-1586; 18 amino acid short peptide lacking the PY motif
B5: human biotin-Cav3.2 1860-1884 C-terminus peptide (peptide, UniProt O95180-2 1860-1884, looked up)
peptide: SNKEAREDAELDAEIELEMAQGPGS-biotin
modifications: not fully specified
notes: Control peptide; also called hCav3.21860-1884 (CT); Cav3.2 C-terminus peptide
B6: human biotin-Cav3.2 1556-1602 III-IV linker peptide (peptide, UniProt O95180-2 1556-1602, looked up)
peptide: ENFHKCRQHQEAEEARRREEKRLRRLERRRRKAQRRPYYADYSPTRR-biotin
modifications: not fully specified
notes: Synthetic peptide containing the PY motif; also called long III-IV linker

Test [1] concerns the target B3. Kind of test: affinity precipitation from mouse brain lysate with biotinylated Tat peptide (25 µg), western blot for USP5. In general terms: A western blot detects proteins with antibodies after separation by electrophoresis.
Test [2] has as its target B3. Description: in vitro competition by affinity precipitation from mouse brain lysate; competitor 50 µg against biotin-Tat peptide 25 µg.
For test [3], the target named is Cav3.2 channel (mouse, endogenous full-length channel from DRG, brain or dorsal horn) (mouse, UniProt O88427 1-2365, limits assumed). Description: cell-based or functional assay.
Test [4] addresses T1, WWP1 (mouse, endogenous, from DRG lysate) (mouse, UniProt Q8BZZ3 1-918).
T1 construct: also called HECT E3 ligase WWP1
Kind of test: affinity precipitation from mouse DRG lysate with biotinylated peptide, western blot for WWP1.

Test [5] concerns the target T2, recombinant human USP5 long isoform (human, UniProt P45974 1-858).
T2 construct: Purified recombinant protein bought from EnzoLifeSciences; also called hUSP5 long; USP5 long isoform (858 amino acids)
T2 sequence: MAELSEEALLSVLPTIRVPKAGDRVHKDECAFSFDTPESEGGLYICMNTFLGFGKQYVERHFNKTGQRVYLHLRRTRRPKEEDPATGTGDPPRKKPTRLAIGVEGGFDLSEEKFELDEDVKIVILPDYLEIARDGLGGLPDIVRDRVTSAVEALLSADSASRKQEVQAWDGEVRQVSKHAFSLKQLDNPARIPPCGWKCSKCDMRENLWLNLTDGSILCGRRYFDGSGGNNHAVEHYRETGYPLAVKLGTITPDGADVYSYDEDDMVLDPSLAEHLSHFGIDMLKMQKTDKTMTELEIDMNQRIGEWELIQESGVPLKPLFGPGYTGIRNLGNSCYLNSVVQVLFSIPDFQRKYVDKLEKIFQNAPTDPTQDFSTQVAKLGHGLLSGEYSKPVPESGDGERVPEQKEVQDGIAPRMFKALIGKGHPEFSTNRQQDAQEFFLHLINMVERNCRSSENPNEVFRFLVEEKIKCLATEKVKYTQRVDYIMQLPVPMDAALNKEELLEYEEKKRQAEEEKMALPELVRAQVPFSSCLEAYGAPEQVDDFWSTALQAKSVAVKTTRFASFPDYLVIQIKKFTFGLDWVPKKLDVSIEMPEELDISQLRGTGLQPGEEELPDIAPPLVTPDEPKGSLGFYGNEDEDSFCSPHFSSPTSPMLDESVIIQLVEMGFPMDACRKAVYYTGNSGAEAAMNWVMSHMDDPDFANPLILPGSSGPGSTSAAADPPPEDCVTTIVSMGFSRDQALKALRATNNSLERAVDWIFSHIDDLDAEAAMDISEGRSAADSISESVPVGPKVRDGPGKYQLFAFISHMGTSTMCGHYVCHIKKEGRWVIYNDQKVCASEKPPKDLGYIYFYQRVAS
Description: in vitro binding assay of purified recombinant USP5 to biotinylated peptide, western blot.

In test [6] the target is T3, recombinant human USP5 short isoform (human, UniProt P45974-2 1-835).
T3 construct: Purified recombinant protein bought from EnzoLifeSciences; also called hUSP5 short; USP5 short isoform (835 amino acids)
T3 sequence (looked up): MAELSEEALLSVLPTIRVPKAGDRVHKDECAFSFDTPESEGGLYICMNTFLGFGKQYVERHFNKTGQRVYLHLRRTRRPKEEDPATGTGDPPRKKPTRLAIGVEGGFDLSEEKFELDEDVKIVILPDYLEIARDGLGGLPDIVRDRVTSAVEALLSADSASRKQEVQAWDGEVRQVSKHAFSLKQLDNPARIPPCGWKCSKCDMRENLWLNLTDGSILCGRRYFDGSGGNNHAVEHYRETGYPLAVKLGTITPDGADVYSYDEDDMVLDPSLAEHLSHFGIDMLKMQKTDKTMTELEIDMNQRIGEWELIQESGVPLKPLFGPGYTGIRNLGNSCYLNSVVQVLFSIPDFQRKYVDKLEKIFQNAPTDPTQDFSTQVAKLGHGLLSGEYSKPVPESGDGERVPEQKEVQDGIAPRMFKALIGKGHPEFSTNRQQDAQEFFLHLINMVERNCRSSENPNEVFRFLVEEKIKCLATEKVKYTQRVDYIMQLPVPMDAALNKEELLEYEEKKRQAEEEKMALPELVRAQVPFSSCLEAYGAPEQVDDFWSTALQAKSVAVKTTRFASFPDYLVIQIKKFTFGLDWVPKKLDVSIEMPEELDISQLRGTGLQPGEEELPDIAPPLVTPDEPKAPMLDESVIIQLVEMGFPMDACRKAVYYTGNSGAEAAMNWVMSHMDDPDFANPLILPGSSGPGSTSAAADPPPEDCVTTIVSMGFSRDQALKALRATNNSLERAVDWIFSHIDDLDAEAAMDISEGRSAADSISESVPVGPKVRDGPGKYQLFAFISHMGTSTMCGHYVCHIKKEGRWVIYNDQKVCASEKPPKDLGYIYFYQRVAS
The description is as above.

Test [7] concerns the target B3. Description: affinity precipitation from mouse brain lysate with biotinylated peptide, western blot for USP5.

No end group written: not given here.

Sequence of Cav3.2 channel (mouse, endogenous full-length channel from DRG, brain or dorsal horn) (O88427 whole entry): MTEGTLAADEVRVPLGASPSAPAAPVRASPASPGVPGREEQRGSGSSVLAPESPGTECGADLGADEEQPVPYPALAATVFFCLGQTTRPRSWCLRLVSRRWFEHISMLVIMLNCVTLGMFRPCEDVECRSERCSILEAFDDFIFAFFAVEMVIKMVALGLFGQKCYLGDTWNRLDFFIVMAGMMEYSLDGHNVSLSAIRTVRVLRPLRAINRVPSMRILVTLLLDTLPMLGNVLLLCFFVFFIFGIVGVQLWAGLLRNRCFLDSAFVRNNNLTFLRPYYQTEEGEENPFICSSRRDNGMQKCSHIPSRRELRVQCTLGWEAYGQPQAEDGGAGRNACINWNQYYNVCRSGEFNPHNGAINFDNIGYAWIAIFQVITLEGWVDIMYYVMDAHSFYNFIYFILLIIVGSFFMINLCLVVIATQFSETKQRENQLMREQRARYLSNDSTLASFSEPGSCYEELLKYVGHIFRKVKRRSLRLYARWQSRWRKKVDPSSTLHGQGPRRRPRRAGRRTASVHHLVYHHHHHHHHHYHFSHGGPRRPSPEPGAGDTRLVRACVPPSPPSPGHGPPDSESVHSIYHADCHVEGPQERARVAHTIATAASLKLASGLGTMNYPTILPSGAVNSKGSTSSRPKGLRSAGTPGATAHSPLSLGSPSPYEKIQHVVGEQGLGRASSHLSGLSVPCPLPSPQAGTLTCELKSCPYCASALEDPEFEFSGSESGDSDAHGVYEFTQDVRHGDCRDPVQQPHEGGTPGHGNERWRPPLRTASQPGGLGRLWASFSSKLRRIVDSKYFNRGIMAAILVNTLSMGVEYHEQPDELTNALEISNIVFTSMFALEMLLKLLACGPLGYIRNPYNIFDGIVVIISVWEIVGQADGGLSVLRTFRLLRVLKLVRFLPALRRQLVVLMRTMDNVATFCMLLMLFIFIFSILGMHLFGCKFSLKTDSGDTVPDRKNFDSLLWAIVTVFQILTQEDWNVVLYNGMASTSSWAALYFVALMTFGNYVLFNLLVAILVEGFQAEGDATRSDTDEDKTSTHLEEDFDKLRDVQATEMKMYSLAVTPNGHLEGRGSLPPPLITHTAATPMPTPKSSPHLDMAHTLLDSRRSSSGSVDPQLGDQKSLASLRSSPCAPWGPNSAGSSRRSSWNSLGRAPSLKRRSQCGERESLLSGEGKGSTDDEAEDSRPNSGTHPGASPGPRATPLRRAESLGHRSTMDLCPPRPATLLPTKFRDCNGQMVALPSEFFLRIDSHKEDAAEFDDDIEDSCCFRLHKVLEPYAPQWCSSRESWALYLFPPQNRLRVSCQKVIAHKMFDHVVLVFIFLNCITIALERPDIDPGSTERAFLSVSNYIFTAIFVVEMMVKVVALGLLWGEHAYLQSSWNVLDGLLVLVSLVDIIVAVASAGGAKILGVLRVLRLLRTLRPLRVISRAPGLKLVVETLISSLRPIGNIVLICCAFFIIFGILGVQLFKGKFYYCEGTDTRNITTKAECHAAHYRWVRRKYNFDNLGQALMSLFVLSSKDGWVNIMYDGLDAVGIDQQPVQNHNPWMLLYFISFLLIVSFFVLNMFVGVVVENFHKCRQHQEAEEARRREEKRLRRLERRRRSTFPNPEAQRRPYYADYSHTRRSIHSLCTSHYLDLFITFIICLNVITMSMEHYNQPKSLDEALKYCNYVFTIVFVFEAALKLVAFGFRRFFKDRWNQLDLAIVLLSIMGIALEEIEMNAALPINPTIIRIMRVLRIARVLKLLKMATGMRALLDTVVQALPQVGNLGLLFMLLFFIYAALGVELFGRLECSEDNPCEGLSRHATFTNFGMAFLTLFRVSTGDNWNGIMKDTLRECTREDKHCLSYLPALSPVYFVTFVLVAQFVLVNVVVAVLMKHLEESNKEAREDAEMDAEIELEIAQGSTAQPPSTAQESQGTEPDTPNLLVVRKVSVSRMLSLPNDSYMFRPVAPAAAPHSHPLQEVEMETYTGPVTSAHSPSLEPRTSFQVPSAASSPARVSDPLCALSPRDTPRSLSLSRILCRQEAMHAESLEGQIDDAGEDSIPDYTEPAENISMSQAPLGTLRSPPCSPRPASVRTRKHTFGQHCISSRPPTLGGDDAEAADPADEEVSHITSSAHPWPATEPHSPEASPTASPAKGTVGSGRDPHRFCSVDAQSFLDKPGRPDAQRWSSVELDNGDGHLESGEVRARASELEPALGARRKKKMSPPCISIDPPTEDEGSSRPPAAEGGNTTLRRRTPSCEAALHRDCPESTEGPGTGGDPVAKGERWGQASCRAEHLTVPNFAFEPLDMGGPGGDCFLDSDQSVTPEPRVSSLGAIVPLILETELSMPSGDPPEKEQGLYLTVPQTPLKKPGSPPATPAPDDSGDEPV

As for B1, the binding result in test [1] was “binds”.

Regarding B2, in test [2], the binding result is listed as “binds”.

With B3, the “channel ubiquitination of Cav3.2 immunoprecipitates from CAD cells transfected with USP5-shRNA against USP15-shRNA” value in test [3] is approximately 5 fold.

As for B4, the binding result in test [4] is “binds”.

Consider B5, for which the binding result in test [5], in test [6] and in test [7] was “no binding” in each case.

As for B6, the binding result in test [5], in test [6], in test [4] and in test [7] was “binds” each time.
